Substitutions are numbered along the chain they refer to. Some results are limits rather than exact numbers.

In one experiment the target is T1, Human PDGF-BB (human, UniProt P01127 82-190).
T1 construct: Recombinant human PDGF-BB, a dimer of two B chains; also called huPDGF-BB; hPDGF-BB
Description: Biacore SPR (Example 1.1). As to the method:
(§1) Unreacted moieties on the biosensor surface were blocked with ethanolamine. For kinetic analysis, rate equations derived from the 1:1 Langmuir binding model were fitted simultaneously to multiple antigen injections (using global fit analysis) with the use of Scrubber 2 (BioLogic Software), Biacore Biaevaluation 4.0.1 software or Biacore T100 Evaluation software. Purified antibodies or DVD-Ig molecules were diluted in running buffer for capture across goat anti-human Fc reaction surfaces. Antibodies or DVD-Ig molecules to be captured as a ligand (1 μg/ml) were injected over reaction matrices at a flow rate of 10 μl/minute. During the assay, all measurements were referenced against the capture surface alone (i.e., with no captured antibody or DVD-Ig molecule). […] The equilibrium dissociation constant KD (M) of the reaction between antibodies and the target antigen was then calculated from the kinetic rate constants by the following formula: KD=Koff/Kₒₙ. Binding was recorded as a function of time and kinetic rate constants were calculated. In this assay, on-rates as fast as 10⁶M⁻¹s⁻¹ and off-rates as slow as 10⁻⁶ s⁻¹ could be measured.

The target in a further experiment is T2, Human VEGF-A 165 (human, UniProt P15692 207-395).
T2 construct: Recombinant; also called huVEGF-A165; hVEGF165
T2 sequence (P15692 other isoform, or with tags, fused parts or gaps limits assumed): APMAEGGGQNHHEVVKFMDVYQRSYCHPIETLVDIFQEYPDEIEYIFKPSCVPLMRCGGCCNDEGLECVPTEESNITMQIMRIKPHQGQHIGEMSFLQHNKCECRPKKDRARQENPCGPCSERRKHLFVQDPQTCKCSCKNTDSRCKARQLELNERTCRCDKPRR
Description: receptor competition ELISA, hVEGF165 binding to coated hVEGF-R2-Fc. As to the method:
(§2) To identify molecules that could block the binding of hVEGF₁₆₅ to the hVEGF-R2 (KDR/Flk-1) receptor, a competition ELISA was performed. […] Plates were then washed four times with wash buffer (TBS, 0.05% Tween-20) and blocked with Superblock blocking buffer (Thermo Scientific, cat#37535). […] The pre-incubated sample/hVEGF₁₆₅ complex was added to the coated plate at 50 μL in duplicate and incubated for 30 minutes at 25° C. with shaking. Following incubation, plates were washed four times with wash buffer. Streptavidin-polyHRP-40 (Fitzgerald cal#65r-s104phrp) was diluted in assay diluent (10% Superblock containing 0.05% surfactamps) and added to plates (50 μL) for 45 minutes at 25° C. with shaking. Plates were washed four times with wash buffer and developed with the addition of Enhanced K-blue TMB substrate (Neogen cat#308177). The reaction was stopped with 2N sulfuric acid (VWR, cat# BDH3500-1) and the absorbance was read at 450 nm-570 nm. A decrease in observed optical density indicates the test molecule is blocking the hVEGF₁₆₅ binding to the hVEGF-R2-Fc. Data was analyzed using Softmax Pro 4.8 software and IC₅₀ values calculated using a sigmoidal dose response (variable slope) fit in GraphPad Prism 5.
Anti-VEGF-A antibodies derived from rat hybridomas were characterized for binding, function and cross-reactivity in a panel of assays. Supernatants were tested for the ability to bind hVEGF₁₆₅ (Example 1.3) and block binding of hVEGF₁₆₅ to hVEGFR2 in a competition ELISA format (Example 1.4).
In general terms: ELISA stands for enzyme-linked immunosorbent assay.

For experiment [1], the target named is T3, recombinant human VEGF165 (human, UniProt P15692 207-395).
T3 construct: also called hVEGF165
T3 sequence (P15692 other isoform, or with tags, fused parts or gaps limits assumed): as above
The experiment is described as follows: competition ELISA: antibody titrated against biotinylated hVEGF165, binding to plate-coated hVEGF-R2-Fc. On the procedure: as §2
(§3) Affinity matured humanized anti-VEGF antibodies were characterized for hVEGF₁₆₅ binding and potency. Binding affinity of these molecules to hVEGF₁₆₅ was determined by Biacore analysis (Example 1.1). Potency was evaluated in both cell-based and ELISA formats. The ability to block binding of hVEGF₁₆₅ to hVEGFR2 was evaluated in a competition ELISA (Example 1.4) Inhibition of hVEGF₁₆₅-induced cell proliferation was assessed using HMVEC-d cells (Example 1.10).

Experiment [2] deals with T3, recombinant human VEGF165. Description: SPR (Biacore), antibody captured by anti-human Fc, hVEGF165 in solution. On the procedure: as §1, §3
On the technique in general: Surface plasmon resonance follows binding to a sensor surface in real time, without labels.

Experiment [3] has as its target T3, recombinant human VEGF165. The experiment is described as follows: cell-based or functional assay.
Experiment [4] deals with recombinant murine PDGF-BB (mouse, UniProt P31240 82-190). The experiment is described as follows: cell-based or functional assay.
recombinant murine PDGF-BB, sequence (P31240 82-190 limits assumed): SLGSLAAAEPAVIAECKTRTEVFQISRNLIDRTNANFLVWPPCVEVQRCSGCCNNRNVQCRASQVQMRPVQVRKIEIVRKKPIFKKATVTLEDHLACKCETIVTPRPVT

T1 sequence (P01127 82-190 limits assumed): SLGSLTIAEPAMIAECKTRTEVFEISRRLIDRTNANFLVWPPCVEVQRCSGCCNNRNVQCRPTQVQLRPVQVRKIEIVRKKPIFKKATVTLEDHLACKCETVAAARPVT

B1: BDI-5G2-F9 (antibody, V domains shown)
VH: QVTLKESGPGILQPSQTLSLTCTFSGFSLSTFGMGVGWIRQPSGKGLEWLANIWWDDDKYYNPSLKNRLTISKDTSNSQAFLEITNVDTADTATYYCARISTGISSYYVMDAWGQGASVTVSS
VL: QFTLTQPKSVSGSLRSTITIPCERSSGDIGDTYVSWYQQHLGRPPINVIYGNDQRPSEVSDRFSGSIDSSSNSASLTITNLQMDDEADYFCQSYDSDIDIVFGGGTKLTVL
Take B1: in the experiment with Human PDGF-BB, the Kd is no more than 0.0001 nM and the kon was no less than 1e+07 M⁻¹ s⁻¹.

B2: BDI-5H1-F6 (antibody, V domains shown)
VH: B1 VH
VL: B1 VL
In the experiment with Human PDGF-BB, B2 had a Kd of no more than 0.0001 nM and a kon of no less than 1e+07 M⁻¹ s⁻¹.

B3: BEW-9A8-E2 (antibody, IgG2a, V domains shown)
VH: QIQLVQSGPELKKPGESVKISCKASGYTFTNYGMYWVKQAPGQGLQYMGWINTETGKPIYADDFKGRFVFFLETSASTAYLQINNLKNEDMATFFCARVDYDGSFWFAYWGQGTLVTVSS
VL: DTVLTQSPALAVSPGERVSISCRASESVSTVIHWYQQKPGQQPKLLIHGASNLESGVPARFSGSGSGTDFTLTIDPVEADDTATYFCQQHWNDPPTFGAGTKLEMK
notes: Rat hybridoma antibody, isotype IgG2a/kappa
B3 displayed an IC50 in the experiment with Human VEGF-A 165 of 0.249 nM.

B4: BEW-8E6-E4 (antibody, IgG2a, V domains shown)
VH: QIQLVQSGPELKKPGESVKISCKASGYTFTDYAMHWVKQAPGKVLKWMGWINTFTGKPTYIDDFKGRFVFSLEASASTANLQISDLKNEDTATYFCARGNYYSGYWYFDFWGPGTMVTMSS
VL: DIQMTQSPASLSASLGETISIECRASEDISSNLAWYQQKSGKSPQLLIFAANRLQDGVPSRFSGSGSGTQFSLKISGMQPEDEGDYFCLQGSKFYTFGAGTKLELK
notes: as for B3
The molecule B4 registered an IC50 in the experiment with Human VEGF-A 165 of 0.342 nM.

B5: BEW-1E3-D6 (antibody, IgG2b, V domains shown)
VH: QIQLVQSGPELKKPGESVKISCKASGYPFTNSGMYWVKQAPGQGLQYMGWINTEAGKPTYADDFKGRFVFFLETSASTAYLQINNLKNEDMATYFCARWGYISDNSYGWFDYWGQGTLVTVSS
VL: DTVLTQSPALAVSPGERVSISCRASEGVYSYMHWYQQNPGQQPKLLIYKASNLASGVPARFSGSGSGTDFTLTIDPVEADDTATYFCHQNWNDPLTFGSGTKLEIK
notes: Rat hybridoma antibody, isotype IgG2b/kappa
B5 came in with a half-maximal inhibitory concentration (IC50) with Human VEGF-A 165 of 0.62 nM.

B6: BEW-9E3-B9 (antibody, IgG2a, V domains shown)
VH: QIQLVQSGPELKKPGESVKISCKASGYTFTNYGMYWVKQAPGQGLQYMGWINTETGKPTYADDFKGRFVFFLETSASTAFLQINNLKNEDMATYFCARPSDYYDGFWFPYWGQGALVTVSS
VL: B5 VL with V3I, V18I, Y29N, H88Q, N90S
notes: as for B3
As for B6, in the experiment with Human VEGF-A 165, the IC50 worked out at 0.124 nM.

B7: CL-34633-IgG (antibody, V domains shown)
VH: EVQLVQSGSELKKPGASVKVSCKASGYTFSDYGMYWVRQAPGQGLEWMGWIDTETGEPTYADDFKGRFVFSLDTSVSTAYLQISSLKAEDTAVYYCARTNYYYRSYMFYFDYWGQGTMVTVSS
VL: EIVLTQSPATLSLSPGERATLSCRASQSVSTHMHWYQQKPGQAPRLLIYGASNLESGVPARFSGSGSGTDFTLTISSLEPEDFAVYFCQQSWYDPLTFGQGTKLEIK
notes: also called h4G8 CL-34633
On to B7, for which, in experiment [1], the IC50 was less than 0.1 nM. Besides, in experiment [2], the Kd was found to be 0.00024 nM and the kon was found to be 1.7e+07 M⁻¹ s⁻¹. Also, in experiment [3], the “hVEGF165 IC50 (nM), Potency HMVEC-d (hVEGF165-induced proliferation)” value was 0.138 nM.

B8: CL-34455-IgG (antibody, V domains shown)
VH: B7 VH with S30T, D31N, D62Q, D63G, K65T, R104P
VL: B7 VL with S30G, N53K, F87Y
notes: also called h4G8 CL-34455
For the molecule B8, in experiment [1], the IC50 was less than 0.1 nM. In experiment [2], the Kd is 0.00046 nM and the kon came to 2.2e+07 M⁻¹ s⁻¹. Further, the “hVEGF165 IC50 (nM), Potency HMVEC-d (hVEGF165-induced proliferation)” value in experiment [3] worked out at 0.105 nM.

B9: BEW-5C3-E7 (antibody, IgG2b, V domains shown)
VH: QIQLVQSGPELKKPGESVKISCKASGYTFTNYGVYWVKQAPGQGLQYMGWINTETGKPTYADDFKGRFVFFLETSTNTAYLQINNLKNEDMATFFCARARQLDWFVYWGQGTLVTVSS
VL: DTVLTQSPALTVSPGERVSISCRARESLTTSLCWFQQKPGQQPKLLIYGASKLESGVPARFSGSGSGTDFTLTIDPVEADDTATYFCQQSWYDPPTFGGGTKLELK
notes: as for B5
In the experiment with Human VEGF-A 165, B9 gave an IC50 of 0.156 nM.

B10: BEW-164-C4 (antibody, IgG2b, V domains shown)
VH: QIQLVQSGPELKKPGESVKISCKASGYSFTNYGMYWVKQAPGQGLQYMGWIDTETGKPTYTDDFKGRFVFFLETSASTAYLQINNLKNEDMATYFCARWSGDTAGIRGPWFAYWGQGTLVTVSS
VL: DIRMTQSPASLSASLGETVNIECLASEDIYSDLAWYQQKPGKSPQLLIYNANDLQKGVPSRFSGSGSGTQYSLKINSLQSEDVATYFCQQYNYYPGTFGAGTKLELK
notes: Rat hybridoma antibody, isotype IgG2b/kappa; also called BEW-1B4-C4
For the molecule B10, the IC50 with Human VEGF-A 165 turned out to be 0.18 nM.

B11: BEW-9E10-E7 (antibody, IgG2a, V domains shown)
VH: B10 VH with V5L, S28T, K57R, T61A, A104T
VL: B10 VL with K42R, D53G, K56N, S63G, Y94F
notes: as for B3
For B11, the IC50 with Human VEGF-A 165 was 0.274 nM.

B12: 4G8.3-SL-9E8.4E anti-VEGF-A/anti-PDGF-BB DVD-Ig (PR-1575834) (bispecific antibody, human IgG1, kappa, L234A L235A)
heavy: EVQLVQSGSELKKPGASVKVSCKASGYTFTNYGMYWVRQAPGQGLEWMGWINTETGKPTYADDFKGRFVFSLDTSVSTAYLQISSLKAEDTAVYYCARTNYYYRSYIFYFDYWGQGTMVTVSSASTKGPEVTLRESGPALVKPTQTLTLTCTFSGFSLSTYGMGVGWIRQPPGKALEWLANIWWDDDKYYNPSLKNRLTISKDTSKNQVVLTMTNMDPVDTATYYCARIESIGTTYSFDYWGQGTMVTVSSASTKGPSVFPLAPSSKSTSGGTAALGCLVKDYFPEPVTVSWNSGALTSGVHTFPAVLQSSGLYSLSSVVTVPSSSLGTQTYICNVNHKPSNTKVDKKVEPKSCDKTHTCPPCPAPEAAGGPSVFLFPPKPKDTLMISRTPEVTCVVVDVSHEDPEVKFNWYVDGVEVHNAKTKPREEQYNSTYRVVSVLTVLHQDWLNGKEYKCKVSNKALPAPIEKTISKAKGQPREPQVYTLPPSREEMTKNQVSLTCLVKGFYPSDIAVEWESNGQPENNYKTTPPVLDSDGSFFLYSKLTVDKSRWQQGNVFSCSVMHEALHNAYTQKSLSLSPGK
light: DTVLTQSPATLSLSPGERATLSCRASESVSTHMHWYQQKPGQAPRLLIYGASNLESGVPARFSGSGSGTDFTLTISSLEPEDFAVYFCQQSWNDPFTFGQGTKLEIKRTVAAPSVFIFPPEFVLTQSPGTLSLSPGERATLSCERSSGDIGESYVSWYQQKPGQAPRLVIYADDQRPSGIPDRFSGSGSGTDFTLTISRLEPEDFAVYYCQSYDINIDIVFGGGTKVEIKRTVAAPSVFIFPPSDEQLKSGTASVVCLLNNFYPREAKVQWKVDNALQSGNSQESVTEQDSKDSTYSLSSTLTLSKADYEKHKVYACEVTHQGLSSPVTKSFNRGEC
In the case of B12, the “Potency IC50 (nM) mPDGF-BB (NIH-3T3 proliferation)” value in experiment [4] was 0.772 nM.

B13: BEW-6C2-C8 (antibody, IgG2b, V domains shown)
VH: EVQLVESGGGLVQPGSSLKLSCAASGFTFSYYGMHWIRQAPKKGLEWMALIYYDSSKMYYADSVKGRFTISRDNSKNTLYLEMNSLRSEDTAMYYCAAGGTAPVYWGQGVMVTVSS
VL: NIQLTQSPSLLSASVGDRVTLSCKGSQNIANYLAWYQQKLGEAPKLLIYNTDSLQTGIPSRFSGSGSGTDYTLTISSLQPEDVATYFCYQSNNGYTFGAGTKLELR
notes: as for B5
As for B13, the IC50 with Human VEGF-A 165 was 0.197 nM.

B14: BEW-10H2-B9 (antibody, IgG2b, V domains shown)
VH: QIQLVQSGPELKKPGESVKISCKASGYSFTNFGLYWVKQAPGQGLQYMGWIDTETGKPTYADDFRGRFVFFLETSASTAYLQINNLKNEDMATYFCARVYGYPSWYFDFWGPGTMVTVSS
VL: DIQMTQSPASLSTSLEEIVTITCQASQDIDNYLSWYQQKPGKSPQLLIHSATSLADGVPSRFSGSRSGTQFSLKIHRLQVEDTGIYYCLQHFFPPWTFGGGTKLELK
notes: as for B5
B14 yielded an IC50 with Human VEGF-A 165 of 0.42 nM.

What is called Kd is the equilibrium constant for the complex coming apart. The kon is the rate constant with which the complex forms. Usually IC50 stands for the point on the concentration scale where inhibition reaches its midpoint.

These data come from patent US20170015742A1 (published 2017).
